For two substances, Kd, koff and kon results are on record in patent US20260077041A1.

One assay addresses TNFα (human) (UniProt P01375). Briefly: SPR (Biacore T200), drug captured on protein A chip, TNFα as analyte, multi-cycle.
A further assay deals with IL-17A (human) (UniProt Q16552). Briefly: SPR (Biacore T200), drug captured on protein A chip, IL-17A as analyte, multi-cycle. For orientation: In SPR one partner is held on a chip, and binding of the other changes the refractive index at the surface.
Sequence of IL-17A (human) (Q16552 24-155 limits assumed): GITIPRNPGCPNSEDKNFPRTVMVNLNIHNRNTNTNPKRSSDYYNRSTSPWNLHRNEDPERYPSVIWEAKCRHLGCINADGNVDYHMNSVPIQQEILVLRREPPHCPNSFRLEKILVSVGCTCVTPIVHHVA

Sequence of TNFα (human) (P01375 77-233 limits assumed): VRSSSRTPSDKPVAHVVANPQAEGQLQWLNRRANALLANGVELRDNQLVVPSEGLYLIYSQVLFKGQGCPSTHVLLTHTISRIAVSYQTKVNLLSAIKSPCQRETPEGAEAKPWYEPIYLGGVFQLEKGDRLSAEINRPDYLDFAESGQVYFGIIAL

The Kd is the equilibrium constant for the complex coming apart. Low values mean a tighter complex, high ones a looser complex. As a reminder, the koff is a measure of how fast the partners let go of each other. Lower therefore signals slow dissociation. For orientation: kon means the second-order rate constant of association. In the assay with TNFα (human), Humira (antibody) showed a Kd of 0.16 nM, a koff of 0.00015 s⁻¹ and an on-rate constant (kon) of 941000 M⁻¹ s⁻¹.
In the assay with IL-17A (human), Cosentyx (antibody) gave a dissociation constant (Kd) of 0.0787 nM, a dissociation rate constant (koff) of 6.12e-05 s⁻¹ and a kon of 778000 M⁻¹ s⁻¹.
